The target of experiment [1] is human CD47 (ACROBiosystems, catalog number CD7-H5227) (human, UniProt Q08722 19-139). The experiment can be described thus: ELISA.
The target in experiment [2] is recombinant human CD47-Fc (ACROBiosystems, catalog number CD7-H52A5) (human, UniProt Q08722 19-139). The experiment in a line: competition ELISA; blocking CD47/SIRPα.
In experiment [3] the target is recombinant human PD-L1 (Sino Biological Inc., catalog number 10084-H08H) (human, UniProt Q9NZQ7 19-239). The experiment in a line: ELISA.
In experiment [4] the target is T1, human PD-L1-Fc (ACROBiosystems, catalog number PD1-H5258) (human, UniProt Q9NZQ7 19-238). The experiment can be described thus: competition ELISA; blocking PD-L1/CD80.
Experiment [5] has as its target T1, human PD-L1-Fc (ACROBiosystems, catalog …). The experiment can be described thus: competition ELISA; blocking PD-L1/PD-1.

Chain of recombinant human PD-L1 (Sino Biological Inc., catalog number 10084-H08H) (Q9NZQ7 19-239): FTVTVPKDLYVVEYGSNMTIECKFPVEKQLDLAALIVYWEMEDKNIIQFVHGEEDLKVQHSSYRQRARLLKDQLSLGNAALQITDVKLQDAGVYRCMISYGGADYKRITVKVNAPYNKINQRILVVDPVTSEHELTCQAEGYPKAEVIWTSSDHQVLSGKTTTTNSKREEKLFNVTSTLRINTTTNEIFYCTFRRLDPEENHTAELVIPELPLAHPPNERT
T1 sequence (Q9NZQ7 19-238): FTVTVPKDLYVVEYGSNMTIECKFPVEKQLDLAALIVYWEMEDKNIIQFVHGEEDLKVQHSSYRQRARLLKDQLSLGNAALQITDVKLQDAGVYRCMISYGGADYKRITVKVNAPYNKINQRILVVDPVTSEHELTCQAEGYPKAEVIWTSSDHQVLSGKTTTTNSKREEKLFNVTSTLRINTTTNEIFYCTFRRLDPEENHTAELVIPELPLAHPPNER
Chain of human CD47 (ACROBiosystems, catalog number CD7-H5227) (Q08722 19-139): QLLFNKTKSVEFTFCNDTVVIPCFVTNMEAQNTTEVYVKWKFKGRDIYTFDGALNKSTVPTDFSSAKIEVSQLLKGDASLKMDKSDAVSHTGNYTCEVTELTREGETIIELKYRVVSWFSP
Chain of recombinant human CD47-Fc (ACROBiosystems, catalog number CD7-H52A5) (Q08722 19-139): as above

B1: CD47 monoclonal antibody (heavy and light chain variable region sequences of the humanized sequences z11 of the antibody CD47-18-5 and the constant region … (antibody, V domains shown)
VH: QVQLVQSGAEVKKPGSSVKVSCKASGFNIEDIYMHWVRQAPGQGLEWMGRIDPANDNTKYGPKLQGRVTITADTSTNTAYMELSSLRSEDTAVYYCVRRIPTDIMDYWGQGTTVTVSS
VL: DIQMTQSPSSLSASVGDRVTITCKASQNVRTSIAWYQQKPGKAPKTLIYLASNRHTGVPSRFSGSGSGTEFTLTISNLQPEDFATYYCLQHWNYPFTFGQGTKLEIK
As for B1, the values for the EC50 in experiment [1] and in experiment [2] were 0.094 nM and 2.26 nM, respectively.

B2: anti-PD-L1/anti-CD47 heterodimeric antibody BH3016 (bispecific antibody)
heavy 1: EVQLVQSGAEVKKPGSSVKVSCKASGFNIEDTYIHWVRQAPGQGLEWMGRIDPANANTKYDPKFQGRVTITADTSTNTAYMELSSLRSEDTAVYYCGRGLGAWFAYWGQGTLVTVSS
light 1: DIQMTQSPSSLSASVGDRVTITCKASQDVHTAVAWIQQKPGKSPKLLIYSASNRYTGVPSRFSGSGSGTDFTFTISSLQPEDIATYYCQQHYITPLTFGQGTKLEIKRTVAAPSVFIFPPSDEQLKSGTASVVCLLNNFYPREAKVQWKVDNALQSGNSQESVTEQDSKDSTYSLSSTLTLSKADYEKHKVYACEVTHQGLSSPVTKSFNRGEC
heavy 2: QVQLVQSGAEVKKPGSSVKVSCKASGFNIEDIYMHWVRQAPGQGLEWMGRIDPANDNTKYGPKLQGRVTITADESTSTAYMELSSLRSEDTAVYYCVRRIPTDIMDYWGQGTTVTVSSASTKGPSVFPLAPSSKSTSGGTAALGCLVKDYFPEPVTVSWNSGALTSGVHTFPAVLQSSGLYSLSSVVTVPSSSLGTQTYICNVNHKPSNTKVDKKVEPKSCDKTHTCPPCPAPELLGGPSVFLFPPKPKDTLMISRTPEVTCVVVDVSHEDPEVKFNWYVDGVEVHNAKTKPREEQYASTYRVVSVLTVLHQDWLNGKEYKCKVSNKALPAPIEKTISKAKGQPREPQVYTEPPSRDELTKNQVSLTCLVKGFYPSDIAVEWESNGQPENNYKTTPPVLDSDGSFFLLSVLTVDKSRWQQGNVFSCSVMHEALHNHYTQKSLSLSPGK
light 2: DIQMTQSPSSLSASVGDRVTITCKASQNVRTSIAWYQQKPGKAPKTLIYLASNRHTGVPSRFSGSGSGTEFTLTISNLQPEDFATYYCLQHWNYPFTFGQGTKLEIKRTVAAPSVFIFPPSDEQLKSGTASVVCLLNNFYPREAKVQWKVDNALQSGNSQESVTEQDSKDSTYSLSSTLTLSKADYEKHKVYACEVTHQGLSSPVTKSFNRGEC
B2: the EC50 turned out to be 0.491 nM in experiment [1]; 0.251 nM in experiment [3]; 6.12 nM in experiment [2]; 1.29 nM in experiment [4]; 1.5 nM in experiment [5].

B3: anti-PD-L1/anti-CD47 heterodimeric antibody BH3014 (bispecific antibody)
heavy 1: EVQLVQSGAEVKKPGSSVKVSCKASGFNIEDTYIHWVRQAPGQGLEWMGRIDPANANTKYDPKFQGRVTITADTSTNTAYMELSSLRSEDTAVYYCGRGLGAWFAYWGQGTLVTVSS
light 1: DIQMTQSPSSLSASVGDRVTITCKASQDVHTAVAWIQQKPGKSPKLLIYSASNRYTGVPSRFSGSGSGTDFTFTISSLQPEDIATYYCQQHYITPLTFGQGTKLEIKRTVAAPSVFIFPPSDEQLKSGTASVVCLLNNFYPREAKVQWKVDNALQSGNSQESVTEQDSKDSTYSLSSTLTLSKADYEKHKVYACEVTHQGLSSPVTKSFNRGEC
heavy 2: QVQLVQSGAEVKKPGSSVKVSCKASGFNIEDIYMHWVRQAPGQGLEWMGRIDPANDNTKYGPKLQGRVTITADESTNTAYMELSSLRSEDTAVYYCARRIPTDIMDYWGQGTTVTVSSASTKGPSVFPLAPSSKSTSGGTAALGCLVKDYFPEPVTVSWNSGALTSGVHTFPAVLQSSGLYSLSSVVTVPSSSLGTQTYICNVNHKPSNTKVDKKVEPKSCDKTHTCPPCPAPELLGGPSVFLFPPKPKDTLMISRTPEVTCVVVDVSHEDPEVKFNWYVDGVEVHNAKTKPREEQYASTYRVVSVLTVLHQDWLNGKEYKCKVSNKALPAPIEKTISKAKGQPREPQVYTEPPSRDELTKNQVSLTCLVKGFYPSDIAVEWESNGQPENNYKTTPPVLDSDGSFFLLSVLTVDKSRWQQGNVFSCSVMHEALHNHYTQKSLSLSPGK
light 2: DIQMTQSPSSLSASVGDRVTITCKASQNVRTSIAWYQQKPGKAPKRLIYLASNRHTGVPSRFSGSGSGTEFTLTISNLQPEDFATYYCLQHWNYPFTFGQGTKLEIKRTVAAPSVFIFPPSDEQLKSGTASVVCLLNNFYPREAKVQWKVDNALQSGNSQESVTEQDSKDSTYSLSSTLTLSKADYEKHKVYACEVTHQGLSSPVTKSFNRGEC
With B3, the EC50 was determined as 68.4 nM in experiment [1]; 0.234 nM in experiment [3]; 802 nM in experiment [2]; 1.5 nM in experiment [4]; 1.63 nM in experiment [5].

B4: anti-PD-L1/anti-CD47 heterodimeric antibody BH3015 (bispecific antibody)
heavy 1: EVQLVQSGAEVKKPGSSVKVSCKASGFNIEDTYIHWVRQAPGQGLEWMGRIDPANANTKYDPKFQGRVTITADTSTNTAYMELSSLRSEDTAVYYCGRGLGAWFAYWGQGTLVTVSS
light 1: DIQMTQSPSSLSASVGDRVTITCKASQDVHTAVAWIQQKPGKSPKLLIYSASNRYTGVPSRFSGSGSGTDFTFTISSLQPEDIATYYCQQHYITPLTFGQGTKLEIKRTVAAPSVFIFPPSDEQLKSGTASVVCLLNNFYPREAKVQWKVDNALQSGNSQESVTEQDSKDSTYSLSSTLTLSKADYEKHKVYACEVTHQGLSSPVTKSFNRGEC
heavy 2: QVQLVQSGAEVKKPGSSVKVSCKASGFNIEDIYMHWVRQAPGQGLEWMGRIDPANDNTKYGPKLQGRVTITADTSTSTAYMELSSLRSEDTAVYYCVRRIPTDIMDYWGQGTTVTVSSASTKGPSVFPLAPSSKSTSGGTAALGCLVKDYFPEPVTVSWNSGALTSGVHTFPAVLQSSGLYSLSSVVTVPSSSLGTQTYICNVNHKPSNTKVDKKVEPKSCDKTHTCPPCPAPELLGGPSVFLFPPKPKDTLMISRTPEVTCVVVDVSHEDPEVKFNWYVDGVEVHNAKTKPREEQYASTYRVVSVLTVLHQDWLNGKEYKCKVSNKALPAPIEKTISKAKGQPREPQVYTEPPSRDELTKNQVSLTCLVKGFYPSDIAVEWESNGQPENNYKTTPPVLDSDGSFFLLSVLTVDKSRWQQGNVFSCSVMHEALHNHYTQKSLSLSPGK
light 2: DIQMTQSPSSLSASVGDRVTITCKASQNVRTSIAWYQQKPGKAPKRLIYLASNRHTGVPSRFSGSGSGTEFTLTISNLQPEDFATYYCLQHWNYPFTFGQGTKLEIKRTVAAPSVFIFPPSDEQLKSGTASVVCLLNNFYPREAKVQWKVDNALQSGNSQESVTEQDSKDSTYSLSSTLTLSKADYEKHKVYACEVTHQGLSSPVTKSFNRGEC
With B4, the EC50 stood at 2.49 nM in experiment [1]; 0.262 nM in experiment [3]; 12.8 nM in experiment [2]; 1.97 nM in experiment [4]; 1.67 nM in experiment [5].

B5: anti-PD-L1/anti-CD47 heterodimeric antibody BH3012h (bispecific antibody)
heavy 1: EVQLVQSGAEVKKPGSSVKVSCKASGFNIEDTYIHWVRQAPGQGLEWMGRIDPANANTKYDPKFQGRVTITADTSTNTAYMELSSLRSEDTAVYYCGRGLGAWFAYWGQGTLVTVSS
light 1: DIQMTQSPSSLSASVGDRVTITCKASQDVHTAVAWIQQKPGKSPKLLIYSASNRYTGVPSRFSGSGSGTDFTFTISSLQPEDIATYYCQQHYITPLTFGQGTKLEIKRTVAAPSVFIFPPSDEQLKSGTASVVCLLNNFYPREAKVQWKVDNALQSGNSQESVTEQDSKDSTYSLSSTLTLSKADYEKHKVYACEVTHQGLSSPVTKSFNRGEC
heavy 2: QVQLVQSGAEVKKPGSSVKVSCKASGFNIEDIYMHWVRQAPGQGLEWMGRIDPANDNTKYGPKLQGRVTITADTSTNTAYMELSSLRSEDTAVYYCVRRIPTDIMDYWGQGTTVTVSSASTKGPSVFPLAPSSKSTSGGTAALGCLVKDYFPEPVTVSWNSGALTSGVHTFPAVLQSSGLYSLSSVVTVPSSSLGTQTYICNVNHKPSNTKVDKKVEPKSCDKTHTCPPCPAPELLGGPSVFLFPPKPKDTLMISRTPEVTCVVVDVSHEDPEVKFNWYVDGVEVHNAKTKPREEQYASTYRVVSVLTVLHQDWLNGKEYKCKVSNKALPAPIEKTISKAKGQPREPQVYTEPPSRDELTKNQVSLTCLVKGFYPSDIAVEWESNGQPENNYKTTPPVLDSDGSFFLLSVLTVDKSRWQQGNVFSCSVMHEALHNHYTQKSLSLSPGK
light 2: DIQMTQSPSSLSASVGDRVTITCKASQNVRTSIAWYQQKPGKAPKTLIYLASNRHTGVPSRFSGSGSGTEFTLTISNLQPEDFATYYCLQHWNYPFTFGQGTKLEIKRTVAAPSVFIFPPSDEQLKSGTASVVCLLNNFYPREAKVQWKVDNALQSGNSQESVTEQDSKDSTYSLSSTLTLSKADYEKHKVYACEVTHQGLSSPVTKSFNRGEC
Consider B5, for which the concentration giving a half-maximal response (EC50) in experiment [1] was 0.134 nM; in experiment [3], 0.261 nM; in experiment [2] it was 4.73 nM; in experiment [4], 1.78 nM; in experiment [5], 1.54 nM.

(Values after US20240052037A1 (published 2024).)
